Measurements: the RNAGym collection of RNA variant scans (doi:10.1021/acssynbio.7b00057)

B1: Pistol ribozyme (parent)
chain: GGGUCGUUGUUCCAUAAUCGCGUGGAUAUGGCACGCAAGUUUCUACCGGGCACCGUAAAUGUCCGACUGGAGCCGUUCGGGCGGCUAUAAACAGACCUCAGGCCCGAAGCGUGGCGGCACCUGCCGCCGGUGGUAAAAAAGAUCGGAAGAGCACACGUCU

Variants of: B1
Experiment: aptazyme ON/OFF ratio, guanine; higher = stronger switching; co-transcriptional cleavage with and without guanine

Row | Variant | aptazyme ON/OFF ratio
1 | U7C G9U U10A U11G C13A | 1.14
2 | U7C G9U U10A U11G C13U | 1.21
3 | U7C G9U U10A U11G C13G | 1.02
4 | U7C G9C U10A U11G | 1.09
5 | U7C G9C U10G U11A C12A C13A | 1.31
6 | U7C G9C U10G U11A C12A C13U | 1.4
7 | U7C G9C U10G U11A C12A C13G | 1.09
8 | U7C G9C U10G U11A | 1.09
9 | U7C G9C U10G U11G | 1.11
10 | U7C G9C U10G U11C | 1.05
11 | U7C G9C U10A U11G C12G C13A | 1.1
12 | U7C G9C U10A U11G C12G C13G | 1.09
13 | U7C G9C U10A U11G C12G C13U | 1.13
14 | U7C G9C U10C U11A C13G | 1.05
15 | U7C G9C U10C U11A C13A | 1.09
16 | U7C G9C U10C U11A C13U | 1.03
17 | U7C G9C U10G U11G C13A | 1.1
18 | U7C G9C U10G U11G C13G | 1.11
19 | U7C G9C U10G U11G C13U | 1.09
20 | U7C G9C U10C C12G C13A | 1.09
21 | U7C G9C U10C C12G C13U | 1.08
22 | U7C G9C U10C C12G C13G | 1.12
23 | U7C G9U U10A C12U | 1.37
24 | U7C G9U U10A C12G | 1.47

Row | Variant | aptazyme ON/OFF ratio
25 | U7C G9U U10A C12A | 1.82
26 | U7C G9U U10A U11C C12U C13U | 1.29
27 | U7C G9U U10A U11C C12U C13G | 1.03
28 | U7C G9U U10A U11C C12U C13A | 1.23
29 | U7C G9C U11C C13U | 1
30 | U7C G9C U11C C13A | 1.02
31 | U7C G9C U11C C13G | 1.02
32 | U7C G9C U11C C12A C13A | 1.02
33 | U7C G9C U11C C12A C13U | 1.05
34 | U7C G9C U11C C12A C13G | 1.02
35 | U7C G9C U10G U11A C12U C13G | 1.05
36 | U7C G9C U10G U11A C12U C13A | 1.19
37 | U7C G9C U10G U11A C12U C13U | 1.15
38 | U7C G9C U11G C12G | 1.13
39 | U7C G9C U11G C12A | 1.01
40 | U7C G9C U11G C12U | 1.08
41 | U7C G9C U10C U11G C12U | 1.01
42 | U7C G9C U10C U11G C12G | 1.14
43 | U7C G9C U10C U11G C12A | 1.05
44 | U7C G9C U10C U11C C13G | 1.04
45 | U7C G9C U10C U11C C13A | 1.02
46 | U7C G9C U10C U11C C13U | 1.01
47 | U7C G9U U10A U11C C12A C13A | 1.22
48 | U7C G9U U10A U11C C12A C13U | 1.23

Row | Variant | aptazyme ON/OFF ratio
49 | U7C G9U U10A U11C C12A C13G | 1.14
50 | U7C G9C U10C U11A C12A C13G | 1.05
51 | U7C G9C U10C U11A C12A C13U | 1.05
52 | U7C G9C U10C U11A C12A C13A | 1.08
53 | U7C G9C U11C C12U C13G | 1.03
54 | U7C G9C U11C C12U C13A | 1.05
55 | U7C G9C U11C C12U C13U | 1.03
56 | U7C G9C U11G C12A C13U | 1.07
57 | U7C G9C U11G C12A C13G | 1.06
58 | U7C G9C U11G C12A C13A | 1.05
59 | U7C G9C U10G U11C C12U C13U | 1.16
60 | U7C G9C U10G U11C C12U C13A | 1.12
61 | U7C G9C U10G U11C C12U C13G | 1.05
62 | U7C G9C U10G U11A C12A | 1.25
63 | U7C G9C U10G U11A C12U | 1.15
64 | U7C G9C U10G U11A C12G | 1.23
65 | U7C G9C U11A C13A | 1.03
66 | U7C G9C U11A C13G | 1.04
67 | U7C G9C U11A C13U | 1.02
68 | U7C G9C U11C C12G C13A | 1.04
69 | U7C G9C U11C C12G C13G | 1.04
70 | U7C G9C U11C C12G C13U | 1.04
71 | U7C G9U U10A U11C C13U | 1.07
72 | U7C G9U U10A U11C C13A | 1.11

Row | Variant | aptazyme ON/OFF ratio
73 | U7C G9U U10A U11C C13G | 1.03
74 | U7C G9U U10C C12G C13U | 1.07
75 | U7C G9U U10C C12G C13A | 1.05
76 | U7C G9U U10C C12G C13G | 1.06
77 | U7C G9U C12U C13G | 1.1
78 | U7C G9U C12U C13U | 1.12
79 | U7C G9U C12U C13A | 1.12
80 | U7C G9U U10C C12U C13G | 1.05
81 | U7C G9U U10C C12U C13A | 1.08
82 | U7C G9U U10C C12U C13U | 1.08
83 | U7C G9C U10G C12U C13U | 1.17
84 | U7C G9C U10G C12U C13G | 1.03
85 | U7C G9C U10G C12U C13A | 1.11
86 | U7C G9C U11A | 1.03
87 | U7C G9C U11C | 1.03
88 | U7C G9C U11G | 1.06
89 | U7C G9C U10G C13A | 1.11
90 | U7C G9C U10G C13U | 1.07
91 | U7C G9C U10G C13G | 1.08
92 | U7C G9U U10A U11C C12G C13U | 1.15
93 | U7C G9U U10A U11C C12G C13A | 1.16
94 | U7C G9U U10A U11C C12G C13G | 1.19
95 | U7C G9U U10C | 2.79
96 | U7C G9U U10A | 1.32

Row | Variant | aptazyme ON/OFF ratio
97 | U7C G9C U10C U11A C12G C13A | 1.31
98 | U7C G9C U10C U11A C12G C13G | 1.41
99 | U7C G9C U10C U11A C12G C13U | 1.14
100 | U7C G9C U10A U11C C12G C13A | 1.07
101 | U7C G9C U10A U11C C12G C13G | 1.27
102 | U7C G9C U10A U11C C12G C13U | 1.17
103 | U7C G9U U10A U11G C12G C13G | 1.14
104 | U7C G9U U10A U11G C12G C13U | 1.16
105 | U7C G9U U10A U11G C12G C13A | 1.1
106 | U7C G9C U10G U11G C12U C13A | 1.07
107 | U7C G9C U10G U11G C12U C13U | 1.12
108 | U7C G9C U10G U11G C12U C13G | 1.13
109 | U7C G9C U10G U11A C12G C13A | 1.13
110 | U7C G9C U10G U11A C12G C13G | 1.11
111 | U7C G9C U10G U11A C12G C13U | 1.09
112 | U7C G9C U10A U11C C12U C13A | 1.04
113 | U7C G9C U10A U11C C12U C13U | 1.03
114 | U7C G9C U10A U11C C12U C13G | 1.03
115 | U7C G9U U10A C12G C13U | 1.27
116 | U7C G9U U10A C12G C13A | 1.24
117 | U7C G9U U10A C12G C13G | 1.13
118 | U7C G9U U10C U11A C12G | 1.05
119 | U7C G9U U10C U11A C12U | 1.19
120 | U7C G9U U10C U11A C12A | 1.25

Row | Variant | aptazyme ON/OFF ratio
121 | U7C G9C U10C C12U | 1.09
122 | U7C G9C U10C C12A | 1.04
123 | U7C G9C U10C C12G | 1.07
124 | U7C G9C U10C U11G C12U C13G | 1.1
125 | U7C G9C U10C U11G C12U C13A | 1.08
126 | U7C G9C U10C U11G C12U C13U | 1.09
127 | U7C G9U U10C C13U | 1.5
128 | U7C G9U U10C C13G | 1.06
129 | U7C G9U U10C C13A | 1.04
130 | U7C G9U U10C U11A C12G C13U | 1.15
131 | U7C G9U U10C U11A C12G C13G | 1.23
132 | U7C G9U U10C U11A C12G C13A | 1.19
133 | U7C G9U U10C U11A C13G | 1.04
134 | U7C G9U U10C U11A C13U | 1.16
135 | U7C G9U U10C U11A C13A | 1.1
136 | U7C G9U | 1.05
137 | U7C G9C U10C U11A | 0.975
138 | U7C G9C U10C U11G | 1.07
139 | U7C G9C U10C U11C | 0.99
140 | U7C G9C U10A U11G C12A | 1.11
141 | U7C G9C U10A U11G C12G | 1.29
142 | U7C G9C U10A U11G C12U | 1.05
143 | U7C G9U U10A U11A C12G C13G | 1.19
144 | U7C G9U U10A U11A C12G C13A | 1.17

Row | Variant | aptazyme ON/OFF ratio
145 | U7C G9U U10A U11A C12G C13U | 1.2
146 | U7C G9U U10A U11G | 1.31
147 | U7C G9U U10A U11A | 1.42
148 | U7C G9U U10A U11C | 1.06
149 | U7C G9U U10C U11C C12U | 1.02
150 | U7C G9U U10C U11C C12G | 1.02
151 | U7C G9U U10C U11C C12A | 1.06
152 | U7C G9C U10A U11G C13G | 1.07
153 | U7C G9C U10A U11G C13A | 1.09
154 | U7C G9C U10A U11G C13U | 1.09
155 | U7C G9C U10C U11C C12G C13U | 1.05
156 | U7C G9C U10C U11C C12G C13G | 1.07
157 | U7C G9C U10C U11C C12G C13A | 1.03
158 | U7C G9U U10A U11G C12U C13A | 1.09
159 | U7C G9U U10A U11G C12U C13U | 1.18
160 | U7C G9U U10A U11G C12U C13G | 1.11
161 | U7C G9C U11A C12G | 1
162 | U7C G9C U11A C12A | 1.07
163 | U7C G9C U11A C12U | 1.02
164 | U7C G9C U10A U11G C12A C13U | 1.06
165 | U7C G9C U10A U11G C12A C13A | 1.15
166 | U7C G9C U10A U11G C12A C13G | 1.03
167 | U7C G9C U10G U11G C12A | 1.11
